# Results: the supplement of paper PMC9112550, “Optimization of the antimicrobial peptide Bac7 by deep mutational scanning” (BMC Biology, 2022)
# Tested on: Escherichia coli TOP10
# Experiment: shrunken log2 fold change of peptide-encoding DNA abundance (4.5 h post-induction vs induction); higher = less antimicrobial activity (less host growth inhibition)
# Settings: time post-induction: 4.5 h; library: site-saturation at positions 5, 18, 19, 20
# 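Also: peptides expressed intracellularly from a pBAD plasmid library in pooled LB shake-flask culture, induced with 0.3% L-arabinose, DNA abundance read by NGS, three biological replicates, DESeq2 with apeglm shrinkage.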
row,Sequence,shrunken log2 fold change
1,RRIRVRPPRLPRPRPRPHYTPRP,-0.169
2,RRIRKRPPRLPRPRPRPWVYPRP,0.107
3,RRIRQRPPRLPRPRPRPQLTPRP,-0.405
4,RRIRVRPPRLPRPRPRPPNCPRP,0.194
5,RRIRKRPPRLPRPRPRPTWRPRP,1.23
6,RRIRIRPPRLPRPRPRPKYMPRP,-0.566
7,RRIRLRPPRLPRPRPRPYCDPRP,-0.328
8,RRIRIRPPRLPRPRPRPARNPRP,-0.179
9,RRIRLRPPRLPRPRPRPKQDPRP,-0.199
10,RRIRYRPPRLPRPRPRPNQRPRP,-0.181
11,RRIRQRPPRLPRPRPRPFTWPRP,-0.398
12,RRIRIRPPRLPRPRPRPQNYPRP,-0.428
13,RRIRVRPPRLPRPRPRPSMAPRP,-0.0698
14,RRIRWRPPRLPRPRPRPGASPRP,0.793
15,RRIRTRPPRLPRPRPRPINDPRP,-0.293
16,RRIRVRPPRLPRPRPRPCVCPRP,-0.0618
17,RRIRSRPPRLPRPRPRPTGEPRP,0.0361
18,RRIRVRPPRLPRPRPRPANFPRP,0.0908
19,RRIRVRPPRLPRPRPRPVQIPRP,-0.0141
20,RRIRPRPPRLPRPRPRPCDYPRP,0.218
21,RRIRDRPPRLPRPRPRPKYAPRP,0.0137
22,RRIRNRPPRLPRPRPRPWSDPRP,-0.0436
23,RRIRDRPPRLPRPRPRPWAEPRP,0.302
24,RRIRERPPRLPRPRPRPLQPPRP,0.468
25,RRIRVRPPRLPRPRPRPGRWPRP,0.649

row,Sequence,shrunken log2 fold change
1,RRIRVRPPRLPRPRPRPVRQPRP,-0.0557
2,RRIRIRPPRLPRPRPRPPCGPRP,-0.239
3,RRIRCRPPRLPRPRPRPDHLPRP,-0.0314
4,RRIRSRPPRLPRPRPRPVEVPRP,0.233
5,RRIRTRPPRLPRPRPRPNMGPRP,-0.0939
6,RRIRNRPPRLPRPRPRPTKHPRP,-0.0431
7,RRIRERPPRLPRPRPRPGKNPRP,-0.212
8,RRIRHRPPRLPRPRPRPKNCPRP,0.00397
9,RRIRMRPPRLPRPRPRPLLIPRP,-0.397
10,RRIRWRPPRLPRPRPRPQEQPRP,0.0647
11,RRIRMRPPRLPRPRPRPAGYPRP,0.572
12,RRIRVRPPRLPRPRPRPPTGPRP,0.245
13,RRIRIRPPRLPRPRPRPGRNPRP,0.0581
14,RRIRTRPPRLPRPRPRPVKHPRP,-0.411
15,RRIRIRPPRLPRPRPRPLPEPRP,0.0361
16,RRIRTRPPRLPRPRPRPKVDPRP,0.195
17,RRIRCRPPRLPRPRPRPVTSPRP,-0.0245
18,RRIRTRPPRLPRPRPRPKSSPRP,-0.0371
19,RRIRDRPPRLPRPRPRPPYPPRP,0.109
20,RRIRMRPPRLPRPRPRPDEVPRP,0.00989
21,RRIRFRPPRLPRPRPRPTFAPRP,0.0698
22,RRIRMRPPRLPRPRPRPHGAPRP,0.0098
23,RRIRDRPPRLPRPRPRPEDSPRP,0.882
24,RRIRWRPPRLPRPRPRPDTWPRP,0.0829
25,RRIRQRPPRLPRPRPRPEFYPRP,-0.0478

row,Sequence,shrunken log2 fold change
1,RRIRYRPPRLPRPRPRPSILPRP,-1.25
2,RRIRCRPPRLPRPRPRPNDKPRP,-0.46
3,RRIRTRPPRLPRPRPRPCELPRP,-0.271
4,RRIRPRPPRLPRPRPRPKCQPRP,0.0931
5,RRIRDRPPRLPRPRPRPGEMPRP,0.163
6,RRIRPRPPRLPRPRPRPQVIPRP,-0.0452
7,RRIRERPPRLPRPRPRPRIHPRP,-0.737
8,RRIRWRPPRLPRPRPRPALWPRP,0.53
9,RRIRVRPPRLPRPRPRPECMPRP,0.283
10,RRIRRRPPRLPRPRPRPTWSPRP,0.519
11,RRIRVRPPRLPRPRPRPFIVPRP,-0.285
12,RRIRPRPPRLPRPRPRPTKDPRP,-0.166
13,RRIRFRPPRLPRPRPRPHTQPRP,-0.225
14,RRIRFRPPRLPRPRPRPVKIPRP,-0.0378
15,RRIRCRPPRLPRPRPRPAIDPRP,-0.0121
16,RRIRTRPPRLPRPRPRPCVQPRP,0.0274
17,RRIRVRPPRLPRPRPRPMMAPRP,-0.12
18,RRIRARPPRLPRPRPRPSGVPRP,-0.136
19,RRIRHRPPRLPRPRPRPKALPRP,0.0359
20,RRIRERPPRLPRPRPRPMINPRP,-0.0967
21,RRIRFRPPRLPRPRPRPSADPRP,0.157
22,RRIRLRPPRLPRPRPRPSAQPRP,0.0425
23,RRIRRRPPRLPRPRPRPPAWPRP,0.919
24,RRIRSRPPRLPRPRPRPVGIPRP,-0.012
25,RRIRSRPPRLPRPRPRPKTDPRP,0.124

row,Sequence,shrunken log2 fold change
1,RRIRYRPPRLPRPRPRPCAPPRP,-0.329
2,RRIRLRPPRLPRPRPRPHLIPRP,-0.151
3,RRIRHRPPRLPRPRPRPTSHPRP,-0.837
4,RRIRERPPRLPRPRPRPNWIPRP,-0.324
5,RRIRQRPPRLPRPRPRPCWCPRP,-0.0854
6,RRIRGRPPRLPRPRPRPTTDPRP,0.918
7,RRIRIRPPRLPRPRPRPTESPRP,-0.433
8,RRIRERPPRLPRPRPRPREVPRP,0.13
9,RRIRQRPPRLPRPRPRPLMYPRP,-0.608
10,RRIRCRPPRLPRPRPRPFQIPRP,0.00581
11,RRIRRRPPRLPRPRPRPPKRPRP,0.686
12,RRIRCRPPRLPRPRPRPTQEPRP,0.121
13,RRIRDRPPRLPRPRPRPSCIPRP,0.0916
14,RRIRHRPPRLPRPRPRPGYKPRP,-0.00663
15,RRIRTRPPRLPRPRPRPWWIPRP,-0.869
16,RRIRLRPPRLPRPRPRPTEMPRP,0.037
17,RRIRYRPPRLPRPRPRPRSEPRP,0.0596
18,RRIRWRPPRLPRPRPRPRPAPRP,0.865
19,RRIRDRPPRLPRPRPRPRQLPRP,0.185
20,RRIRRRPPRLPRPRPRPYMHPRP,-0.451
21,RRIRMRPPRLPRPRPRPPMEPRP,0.696
22,RRIRGRPPRLPRPRPRPMRRPRP,1.25
23,RRIRIRPPRLPRPRPRPPEFPRP,-0.0754
24,RRIRVRPPRLPRPRPRPTGIPRP,-0.115
25,RRIRKRPPRLPRPRPRPYANPRP,-0.091

row,Sequence,shrunken log2 fold change
1,RRIRMRPPRLPRPRPRPCIIPRP,-0.798
2,RRIRLRPPRLPRPRPRPPIIPRP,-0.195
3,RRIRCRPPRLPRPRPRPQKDPRP,-0.202
4,RRIRDRPPRLPRPRPRPRAWPRP,0.0227
5,RRIRNRPPRLPRPRPRPNTYPRP,-0.971
6,RRIRMRPPRLPRPRPRPQRTPRP,1.56
7,RRIRDRPPRLPRPRPRPDRFPRP,0.0112
8,RRIRARPPRLPRPRPRPMVKPRP,-0.00629
9,RRIRDRPPRLPRPRPRPWWNPRP,-0.0921
10,RRIRHRPPRLPRPRPRPILWPRP,-0.0569
11,RRIRTRPPRLPRPRPRPELGPRP,0.248
12,RRIRVRPPRLPRPRPRPDNTPRP,-0.426
13,RRIRMRPPRLPRPRPRPAWKPRP,0.14
14,RRIRTRPPRLPRPRPRPRAFPRP,0.184
15,RRIRLRPPRLPRPRPRPVPFPRP,0.123
16,RRIRHRPPRLPRPRPRPVNKPRP,-0.579
17,RRIRIRPPRLPRPRPRPPWPPRP,0.397
18,RRIRWRPPRLPRPRPRPLSNPRP,-0.252
19,RRIRRRPPRLPRPRPRPLTSPRP,0.233
20,RRIRIRPPRLPRPRPRPEIEPRP,-0.0562
21,RRIRCRPPRLPRPRPRPTYDPRP,-0.609
22,RRIRRRPPRLPRPRPRPECYPRP,0.368
23,RRIRIRPPRLPRPRPRPWIRPRP,-0.156
24,RRIRRRPPRLPRPRPRPFSVPRP,0.0458
25,RRIRCRPPRLPRPRPRPGSFPRP,-0.22

row,Sequence,shrunken log2 fold change
1,RRIRKRPPRLPRPRPRPIPAPRP,0.945
2,RRIRPRPPRLPRPRPRPDKYPRP,-0.743
3,RRIRMRPPRLPRPRPRPQPGPRP,0.778
4,RRIRHRPPRLPRPRPRPAESPRP,-0.218
5,RRIRCRPPRLPRPRPRPAMCPRP,-0.144
6,RRIRARPPRLPRPRPRPWKFPRP,-0.00178
7,RRIRGRPPRLPRPRPRPQLQPRP,0.577
8,RRIRERPPRLPRPRPRPAGRPRP,0.0837
9,RRIRDRPPRLPRPRPRPPMRPRP,0.759
10,RRIRARPPRLPRPRPRPFPKPRP,0.178
11,RRIRTRPPRLPRPRPRPMMPPRP,-0.0027
12,RRIRNRPPRLPRPRPRPVCLPRP,-0.453
13,RRIRLRPPRLPRPRPRPEKEPRP,0.263
14,RRIRWRPPRLPRPRPRPFAHPRP,-0.0296
15,RRIRCRPPRLPRPRPRPFMKPRP,-0.696
16,RRIRTRPPRLPRPRPRPLSDPRP,-0.029
17,RRIRMRPPRLPRPRPRPCDEPRP,0.877
18,RRIRVRPPRLPRPRPRPANTPRP,-0.0315
19,RRIRVRPPRLPRPRPRPHEQPRP,-0.163
20,RRIRWRPPRLPRPRPRPRGWPRP,1.13
21,RRIRARPPRLPRPRPRPFASPRP,0.0388
22,RRIRDRPPRLPRPRPRPCAQPRP,1.19
23,RRIRHRPPRLPRPRPRPRFAPRP,0.0665
24,RRIRYRPPRLPRPRPRPCYHPRP,-0.289
25,RRIRPRPPRLPRPRPRPDYYPRP,-0.346
